The record followed here is patent US20020058267A1 (Pfizer, published 2002).

Test [1] addresses forty-residue β-amyloid peptide (human Aβ), aged (aggregated) unless said otherwise (human) (UniProt P05067). As to the kind of experiment: cell-based or functional assay.
Test [2] deals with T1, BBP1 intracellular loop (pOZ339), Gal4 DNA-binding domain fusion (yeast; human, UniProt P04386 1-147).
T1 construct: also called BBP1 intracellular region; predicted intracellular domain of BBP1
As to the kind of experiment: yeast 2-hybrid, two independently derived clones of each strain against vector. The source says: BBP1ΔC was made by using the pACT2-specific oligo #6 with antisense oligo #9 (5′-CTCGAG TCAAGATATGGGCTTGAAAAAAC). After TA cloning, isolation of the EcoRI-XhoI fragment and cloning into pACT2, the resultant plasmid, pEK219, expressed BBP1 from residue 68 to 175. Sequences encoding the BBP1 intracellular loop were amplified using oligonucleotides #10 (5′-CCTTCC ATGGAAGTGGCAGTCGCATTGTCT) plus #11 (5′-[…] TCAAAACCCTACAGTGCAAAAC). This product, containing BBP1 codons 185 to 217, was digested with NcoI+XhoI and cloned into pAS2 cleaved with NcoI +SalI to generate pOZ339. Construction of all Gα protein expression plasmids utilized the BamHI site near the center of each rat cDNA sequence as the site of fusion in pACT2 (Kang, Y. -S., Kane, J., Kurjan, J., Stadel, J., and Tipper, D. (1990) Mol Cell Biol 10, 2582-2590). Sense primers annealed to sequences 5′ of the BamHI site; antisense primers annealed to sequences 3′ of the stop codon and included a SalI restriction site. Primers were: […]
Structural analysis of BBP1 indicated it contained a structural motif known to be a Gα protein activating sequence in the related G protein-coupled receptors. […] The predicted intracellular domain of BBP1 was expressed as a Gal4 DNA-binding domain with portions of rat Gαs, Gαo, or Gαl2 expressed as Gal4 activation domain fusion proteins. […]

Test [3] deals with T2, human BAP42 fused to the Gal4 DNA-binding domain (BAP^BD; expression plasmid pEK162) (yeast; human, UniProt P04386 1-147; P05067 672-713).
T2 construct: The screening strain also expressed free BAP42 (pEK149); also called BAP fusion protein; human BAP fusion protein
As to the kind of experiment: yeast 2-hybrid. The procedure:
These fusion proteins were assayed with the BAP fusion protein and responses compared to those of strains expressing the larger BBP1Δtm protein. The BBP1ΔC protein induced a weak Y2H response (compare BBP1ΔC to vector, FIG. 4), but the BBP1ΔN protein, containing the first tm domain and adjacent amino-proximal sequences produced a response only slightly weaker than that observed with BBP1Δtm.
Bioassays: Strains were grown overnight in 2 ml SC medium lacking leucine and tryptophan to a density of approximately 7×10⁷ cells per ml. Cells were counted and 10-fold serial dilutions made from […] in sterile water. These samples were spotted in 5 μl aliquots on SC medium lacking leucine, tryptophan and histidine and containing 25 mM 3-amino-triazole. Plates were incubated at 30° C. for 2 to 3 days. Positive protein/protein interactions were identified by increased prototrophic growth compared to control strains expressing the Gal4 DNA-binding domain fusion protein plus an irrelevant transcriptional activation domain fusion protein (or simply containing the pACT vector without inserted sequences). This assay method was highly reproducible and provided for the detection of subtle inductions of growth mediated by the specific interaction between target proteins. […]

In test [1], “BBP1 expressed in transfected cells from the BBP1 expression plasmid pBBP (pOZ363) (receptor)” had a % apoptotic nuclei, Ntera2 neurons, 10 µM aged Aβ for 48 hrs of 22.3%; a % apoptotic nuclei, Ntera2 stem cells, 10 µM aged Aβ for 48 hrs of 12.3%; a cell viability after aggregated Aβ peptide for 48 hrs (loss of total cells) (% of total cells) of 22.

B1: rat Gαs C-terminal region (pOZ345), Gal4 activation domain fusion (other, UniProt P63095 235-394, looked up, not shown: large carriers)
chain: IQCFNDVTAIIFVVASSSYNMVIREDNQTNRLQEALNLFKSIWNNRWLRTISVILFLNKQDLLAEKVLAGKSKIEDYFPEFARYTTPEDATPEPGEDPRVTRAKYFIRDEFLRISTASGDGRHYCYPHFTCAVDTENIRRVFNDCRDIIQRMHLRQYELL
notes: range 235-394; also called Gas
For the molecule B1, the binding result in test [2] is on record as “binds”.

B2: rat Gαi2 C-terminal region (pOZ348), Gal4 activation domain fusion (other, UniProt P04897 213-355, looked up, not shown: large carriers)
chain: IHCFEGVTAIIFCVALSAYDLVLAEDEEMNRMHESMKLFDSICNNKWFTDTSIILFLNKKDLFEEKITQSPLTICFPEYTGANKYDEAASYIQSKFEDLNKRKDTKEIYTHFTCATDTKNVQFVFDAVTDVIIKNNLKDCGLF
notes: range 213-355; also called Gai2
Turning to B2, the binding result in test [2] is given as “binds”.

B3: BBP1ΔN (pEK216), Gal4 activation domain fusion (other, not shown: small tags and cut ends)
chain: PKINDATQEPVNCTNYTAHVSCFPAPNITCKDSSGNETHFTGNEVGFFKPISCRNVNGYSYKVAVALSLFLGWLGADRF
notes: Encodes the first tm domain plus the preceding 52 amino acids; also called BBP1?N (so in the source); ?N construct
Regarding B3, the binding result in test [3] is on record as “binds”.
